# Literature values in article PMC3212873.
# Several values for one entry are separate records, joined by “and”; a condition that tells them apart may be missing. Equal entries are not always repeated.
# Experiments:
# Cys32 [1] = target: T1, Cys32 (UniProt position 33, FWAEWCGPCKM); assay: fluorescence; details: reduced Trx-(SH)2, no protein ligand
# Cys32 [2] = target: T1, Cys32; assay: UV-vis; details: reduced Trx-(SH)2, no protein ligand
# Cys35 [3] = target: T2, Cys35 (UniProt position 36, EWCGPCKMIAP); assay: UV-vis; details: reduced Trx-(SH)2, no protein ligand
# Cys32 [4] = target: T1, Cys32; assay: Raman; details: reduced Trx-(SH)2, no protein ligand
# Cys35 [5] = target: T2, Cys35; assay: Raman; details: reduced Trx-(SH)2, no protein ligand
# Cys32 [6] = target: T1, Cys32; assay: chemical modification; details: reduced Trx-(SH)2, no protein ligand
# Cys35 [7] = target: T2, Cys35; assay: chemical modification; details: reduced Trx-(SH)2, no protein ligand
# Cys32 [8] = target: T1, Cys32; assay: NMR; details: reduced Trx-(SH)2, no protein ligand
# Cys32 [9] = target: Cys32 (UniProt position 33, FWAEWCPYCKM); details: reduced variant
Substance,pKa (Cys32 [1]),pKa (Cys32 [2]),pKa (Cys35 [3]),pKa (Cys32 [4]),pKa (Cys35 [5]),pKa (Cys32 [6]),pKa (Cys35 [7]),pKa (Cys32 [8]),pKa (Cys32 [9])
Thioredoxin 1 (EcTrx) (Escherichia coli),6.28,9-10,9-10,7.1,7.9,6.7,9.0,7.4 and 7.0-7.1 and 7.5 or 9.2,–
"Thioredoxin 1, glutaredoxin-like active-site variant (Grx-like EcTrx, CPYC) (Escherichia coli; G33P;P34Y)",–,–,–,–,–,–,–,–,5.9
